This is an account of results in patent US20250382372A1 (OXFORD UNIVERSITY INNOVATION, published 2025).

Changes are numbered by the printed parent chain.

The target in test [1] is human CD1a expressed on cells (human) (UniProt P06126). Nature of the test: flow cytometry, ear skin cells of a CD1a transgenic mouse given antibody 116 (100 ug i.p. on days 0, 2 and 4; panel 'CD1a : OX116'), stained on day 5 with anti-CD1a SK9. For orientation: A flow cytometer gives signals particle by particle.
For test [2] the target is unchanged. Put plainly: flow cytometry, ear skin cells of a CD1a transgenic mouse given isotype control (panel 'CD1a : iso'), stained with anti-CD1a SK9; cell population not named on the sheet.
Test [3] shares this target. Nature of the test: flow cytometry, ear skin cells of a CD1a transgenic mouse given isotype control (row 'CD1a : iso'), stained with anti-CD1a HI149; cell population not named on the sheet.
Test [4] shares this target. Nature of the test: flow cytometry, ear skin cells of a CD1a transgenic mouse given antibody 116 (100 ug i.p. on days 0, 2 and 4; row 'CD1a : OX116'), stained on day 5 with anti-CD1a HI149; the cloud of cells lies at the lower edge of the gate.
The target of test [5] is Cynomolgus monkey CD1a expressed on HEK-293 cells (Cynomolgus monkey). Nature of the test: flow, HEK-293, Ab 10 µg/ml.
For test [6], the target named is Cynomolgus monkey CD1a protein (Cynomolgus monkey). Nature of the test: ELISA, Ab 10 µg/ml. For orientation: In an ELISA, binding on a coated surface is turned into a signal by an enzyme label.
Test [7] has the same target. Nature of the test: ELISA, Ab 0.1 µg/ml.
Test [8] has as its target Cynomolgus monkey CD1a expressed on HEK-293 cells (Cynomolgus monkey). Put plainly: flow, HEK-293, Ab 1 µg/ml.
In test [9] the target is Cynomolgus monkey CD1a protein (Cynomolgus monkey). Put plainly: ELISA, Ab 1 µg/ml.
Test [10] has as its target Cynomolgus monkey CD1a expressed on HEK-293 cells (Cynomolgus monkey). Put plainly: flow, HEK-293, Ab 0.1 µg/ml.
For test [11], the target named is Cynomolgus monkey CD1a protein (Cynomolgus monkey). Put plainly: ELISA, Ab 0.01 µg/ml.
Test [12] has as its target Cynomolgus monkey CD1a expressed on HEK-293 cells (Cynomolgus monkey). Nature of the test: flow, HEK-293, Ab 0.01 µg/ml.
Test [13] deals with T1, human CD1b expressed on HEK-293 cells (human, UniProt P29016 18-333; P61769 21-119).
T1 construct: whole, on cells; also called HEK - CD1b
Put plainly: flow cytometry, HEK-293.
Experimental: (§1) CD1a-specific antibodies were identified by flow cytometry. Binding to proteins expressed on HEK, CIR and MOLT4 cell lines was assessed. […] The C1R-CD1a, C1R-empty vector and MOLT4 cell lines were washed in 1×PBS on the day required. All cell lines were counted and resuspended in 1×PBS and then stained for 30 minutes at 37° C. using the DiI or DiO cellular stains (Invitrogen). Cells were washed with flow cytometry buffer (1% bovine serum albumin, 2 mM EDTA and 0.1% sodium azide in PBS) before mixing 2 DiI-stained and DiO-stained populations together. The cells (20 μl/well) were then added to dilutions of antibody sample (B cell culture supernatant, TAP supernatant, clone supernatant, purified antibody solution) (20 μl/well) and incubated for 1 hour at 4° C. in a flow cytometry assay plate, before being washed with flow cytometry buffer. 10 μl/well of Alexafluor647-conjugated goat anti-species IgG Fc-specific F(ab′)2 fragment (Jackson ImmunoResearch), diluted 1:2500 in flow cytometry buffer, was added and incubated at 4° C. for 30 minutes, followed by washing with wash buffer. The fluorescence intensity was then measured on an iQue screener PLUS.
(§2) HEK-293 cells were transiently transfected with human CD1a, CD1b, CD1c or CD1d and co-transfected with human β2M.

The target in test [14] is T2, human CD1c expressed on HEK-293 cells (human, UniProt P29017 18-333; P61769 21-119).
T2 construct: whole, on cells; also called HEK - CD1c
Put plainly: flow cytometry, HEK-293.
Experimental: as §1, §2

Test [15] deals with T3, human CD1d expressed on HEK-293 cells (human, UniProt P15813 20-335; P61769 21-119).
T3 construct: whole, on cells; also called HEK - CD1d
Nature of the test: flow cytometry, HEK-293.
Experimental: as §1, §2

Test [16] deals with T4, Human CD1a/beta2m heterodimer (HEK293S, deglycosylated, zippers and tags cleaved) (human, UniProt P61769 21-119).
T4 construct: Protein of the crystal structures and of the Biacore 3000 SPR experiments; Carries endogenous lipids (CD1a-endo) or a loaded lipid (named under assay); also called CD1a-endo; CD1a loaded with a specific lipid
Nature of the test: SPR (Biacore 3000): biotinylated OX116 scFv on a streptavidin chip, CD1a-LPC (CD1a loaded with lysophosphatidylcholine) injected up to 1000 nM; 1:1 specific binding fit; unit from the legend paragraph 293.
Experimental: (§3) Depending on the experiment biotinylated scFv molecules were coupled onto the chip surface until a total of 150 or 1000 response units per flow cell were achieved. […] Each lipid was solubilised up to 5-10 mM in 20 mM Tris pH8, 150 mM NaCl and 0.5% CHAPS. CD1a-endo was incubated at room temperature overnight with 15-40× molar excess of lipid. The mixture was subsequently purified by anion exchange chromatography using a MonoQ column (GE Healthcare). Fractions corresponding to lipid-loaded CD1a were pooled together and up-concentrated to 5 μM. Serial dilutions of CD1a up to a maximum concentration of 1 μM were injected for 60 s at 25 C in 20 mM Tris pH8, 150 mM NaCl buffer. The dissociation time between the injections was between 5 minutes up to 1 h. […] Each injection cycle consisted of a 60 s injection of 1 μM CD1a alone immediately followed by increasing concentrations of TCRs (0 to 50 μM) supplemented with 100 nM CD1a to prevent further dissociation of CD1a from the coupled Ab fragment. The runs were performed at 25 C in 20 mM Tris pH8, 150 mM NaCl, 0.5% BSA buffer. In all SPR experiments relative binding response was calculated by subtracting the non-specific response on a reference cell, where an unrelated protein was coupled. The binding curves were obtained by fitting the measured response to a 1:1 specific binding model in GraphPad.

Test [17] addresses T4, Human CD1a/beta2m heterodimer (HEK293S, …). Put plainly: SPR (Biacore 3000): biotinylated OX116 scFv on a streptavidin chip, CD1a-endo (CD1a with endogenous lipids) injected up to 1000 nM; 1:1 specific binding fit; unit from the legend paragraph 293. On the technique in general: In SPR one partner is held on a chip, and binding of the other changes the refractive index at the surface.
Experimental: as §3

Test [18] has the same target. Nature of the test: SPR (Biacore 3000): biotinylated OX116 scFv on a streptavidin chip, CD1a-GD3 (CD1a loaded with GD3 ganglioside) injected up to 1000 nM; 1:1 specific binding fit; unit from the legend paragraph 293.
Experimental: as §3
Test [19] shares this target. Nature of the test: SPR (Biacore 3000): biotinylated OX116 scFv on a streptavidin chip, CD1a-SM24:1 (CD1a loaded with sphingomyelin 24:1) injected up to 1000 nM; 1:1 specific binding fit; unit from the legend paragraph 293.
Experimental: as §3
For test [20] the target is unchanged. Put plainly: SPR (Biacore 3000): biotinylated OX16 scFv on a streptavidin chip, CD1a-LPC (CD1a loaded with lysophosphatidylcholine) injected up to 1000 nM; 1:1 specific binding fit; unit from the legend paragraph 293.
Experimental: as §3
Test [21] shares this target. Nature of the test: SPR (Biacore 3000): biotinylated OX16 scFv on a streptavidin chip, CD1a-GD3 (CD1a loaded with GD3 ganglioside) injected up to 1000 nM; 1:1 specific binding fit; unit from the legend paragraph 293.
Experimental: as §3
The target is the same in test [22]. Nature of the test: SPR (Biacore 3000): biotinylated OX16 scFv on a streptavidin chip, CD1a-endo (CD1a with endogenous lipids) injected up to 1000 nM; response fitted to a 1:1 specific binding model; unit from the legend paragraph 293.
Experimental: as §3
Test [23] shares this target. Nature of the test: SPR (Biacore 3000): biotinylated OX16 scFv on a streptavidin chip, CD1a-SM24:1 (CD1a loaded with sphingomyelin 24:1) injected up to 1000 nM; 1:1 specific binding fit; unit from the legend paragraph 293.
Experimental: as §3

As for SK9 (antibody), the CD1a+ (gate frequency, percent of plotted cells; unit not given) is 87.4 in test [1] and 84.9 in test [2].

In the case of HI149 (antibody), the figures for the CD1a+ (gate frequency, percent of plotted cells; unit not given) in [3] and in [4] were 82.2 and 46.6, respectively.

B1: 77A (VR11851) (antibody, V domains shown)
VH: QSVEESGGRLVTPGTPLTLTCTVSGFSLSSYAMSWVRQAPGKGLEWIGIISSSGTTYYASWAKGRFTISKTSTTVDLKITSPTTEDTATYFCARVDYYSSGWGGLWGPGTLVTVSS
VL: AVEMTQTPASMSAAVGGTVTIKCQASEDIYSNLAWYQQKPGQPPKLLIYGASTLASGVPSRFKGSGSGTEYTLTISGVQCDDAATYYCQCTYDTSSYGNTFGGGTEMVVE
notes: V regions were 'cloned as either rabbit or mouse full length antibodies'; also called OX77a; antibody 77a
In the case of B1, the Fluorescence Intensity Geomean (normalized to background) (fold over background) in test [5] came to 1.4; in test [8], 10.6; in test [10] it was 5.7; in [12] it was 1.7. For the same molecule, the Optical Density (OD) came out at 0.52 OD in [6], 0.24 OD in test [7], 0.43 OD in test [9] and 0.1 OD in [11]. Moreover, the binding result in [13], in [14] and in [15] was “no binding (tested: 100 µg/ml)” throughout.

B2: 111 (VR12113) (antibody, V domains shown)
VH: QSVEESGGRLVTPGTPLTLTCTASGFSLSTYAMSWVRQAPGKGLEWIGIISSSGSTYYASWAKGRFTISKTSTTVDLKITSPTTEDTATYFCARETWYWLDLWGQGTLVTVSS
VL: B1 VL with M11V, K22N, T91A, T94S, N99T, T100P, M107V, E110K
notes: also called OX111
As for B2, the Fluorescence Intensity Geomean (normalized to background) (fold over background) in test [5] stood at 16.3; in [8] it was 12.9; in test [10] it was 25.8; in [12] it was 8.9. Besides, the Optical Density (OD) in [6] came to 0.79 OD; in test [7] it was 0.66 OD; in test [9], 0.69 OD; in test [11], 0.48 OD. Also, the binding result in test [13], in test [14] and in [15] was “no binding (tested: 100 µg/ml)” in each case.

B3: OX116 scFv (scFv)
scFv: DAQSVEESGGRLVTPGTPLTLTCTVSGFSLSNYAMSWVRQAPGKGLEWIGIIYTTGFTYYASWVKGRFTISKTSTTVDLKITSPTTEDTATYFCARGLATYVSPPTRLDLWGQGTLVTVSSGGGGSGGGGSGGGGSAQVLTQTPSPVSAAVGGTVTINCQASQSIYNSKNLAWYQQKPGQPPKLLIYSASTLASGVPSRFKGSGSGTQFTLTISDLESDDAATYYCQGEFSCSSVDCATFGGGTEVVVKSGLEVLFQGPGSGLNDIFEAQKIEWHEHHHHHH
modifications: biotinylated on the C-terminal biotinylation tag (SPR only)
notes: The entry holds the leader, VH, linker, VL, 3C site, BirA tag and His tag; For crystallisation the BirA and His tags were cut off with 3C protease; also called OX116 Ab fragment
Take B3: the dissociation constant (Kd) in test [16] was 1520 nM; in test [17], 483 nM; in test [18], 329 nM; in [19] it was 529 nM.

B4: 116 (VR12117) (antibody, V domains shown)
VH: QSVEESGGRLVTPGTPLTLTCTVSGFSLSNYAMSWVRQAPGKGLEWIGIIYTTGFTYYASWVKGRFTISKTSTTVDLKITSPTTEDTATYFCARGLATYVSPPTRLDLWGQGTLVTVSS
VL: AQVLTQTPSPVSAAVGGTVTINCQASQSIYNSKNLAWYQQKPGQPPKLLIYSASTLASGVPSRFKGSGSGTQFTLTISDLECDDAATYYCQGEFSCSSVDCATFGGGTEVVVK
notes: also called OX116
For the molecule B4, the Fluorescence Intensity Geomean (normalized to background) (fold over background) in test [5] is 1.7; in [8] it was 0.8; in test [10], 1; in test [12], 1. Further, the Optical Density (OD) in [6] is 0.16 OD; in test [7], 0.07 OD; in [9], 0.14 OD; in test [11], 0.07 OD. Further, the binding result in test [13], in test [14] and in test [15] was “no binding (tested: 100 µg/ml)” each time.

B5: 110 (VR12112) (antibody, V domains shown)
VH: QSVEESGGRLVTPGTPLTLTCTVSGFSLSSYAMIWVRQAPGKGLEWIGIINSSDNTHYATWAKGRFTISKTSTTVDLKITSPTTEDTATYFCARDPYDYGYGWYFDLWGPGTLVTVSS
VL: AQVLTQTPSPVSAAVGGTVTINCQASQSVFNNKNLAWYQQKPGQPPKLLIYKASTLASGVSSRFKGSGSGTQFALTISGVQCDDAATYYCQGEFSCSSTDCVTFGGGTEVVVK
notes: V regions were 'cloned as either rabbit or mouse full length antibodies'; also called OX110; antibody 110
Consider B5, for which the Fluorescence Intensity Geomean (normalized to background) (fold over background) in [5] was found to be 13.6; in test [10], 3.3; in test [12], 1.2. In addition, the Optical Density (OD) in test [6] came out at 0.86 OD; in test [7], 0.53 OD; in [9], 0.94 OD; in [11] it was 0.22 OD. Moreover, the binding result in [13], in test [14] and in test [15] was “no binding (tested: 100 µg/ml)” in each case.

B6: OX16 scFv (scFv)
scFv: DAEVQLVESGGGLVKPGGSLKLSCAASGFTFSNYAMSWVRQTPEKRLEWVAAINSNGGSAYYPDTVKDRFTISRDNAKNTLYLQMSSLRSEDTALYYCARRFYYDYGWFAYWGQGTLVTVSSGGGGSGGGGSGGGGSDIVLTQSPASLSASVGETVTITCRASENIDSYLAWYQQKQGKSPQLLVYAATLLADGVPSRFSGSGSGTQYSLKINSLQSEDVARYYCQHYYSSPWTFGGGTKLEIKSGLEVLFQGPGSGLNDIFEAQKIEWHEHHHHHH
modifications: biotinylated on the C-terminal biotinylation tag (SPR only)
notes: The entry holds the leader, VH, Gly-Ser linker, VL, 3C site, BirA tag and His tag; For crystallisation the BirA and His tags were cut off with 3C protease; also called 16 ScFv full; single chain variable construct of OX16
In the case of B6, the equilibrium dissociation constant (Kd) in test [20] amounted to 1010 nM; in test [21] it was 1270 nM; in [22] it was 476 nM; in test [23], 860 nM.

The Kd is the concentration at which binding is half-saturated.
